These results are taken from the domain aggregation screens of Martell et al. (2025).

The nature of the series: soluble fraction after stress (log2 fold change); higher = more stays soluble; pooled small domains, quantitative proteomics. The following applies: stress: 50 degC. The method in brief:
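The stress applied to every library was 50°C. These custom libraries of small protein domains were pooled and measured at high throughput with quantitative proteomics as the read-out. Aggregation propensity is expressed as the base-two logarithm of the fold change in how much of each protein remains soluble. The higher the value, the more of that protein stays in solution.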
Consider “HMPDIFDRGTAHITDAASGVAITFTRTFRIPPEVTMTHKGGTVVAIARLVGSITTGGFTAVLENT”, for which the “soluble fraction (log2)” value is -0.264.

Turning to “HMNPSFTMGTRIKEYIDAHYLEDLKLADIAEALHINLYYLSHTFKDLTGSSPMQYIIRRRIEE”, the “soluble fraction (log2)” value is -0.778.

For “HMEPFEQLLDRITSQTGKEPEEVVARMNELITERFDGNIRPEAALVIVAKRDNIQFMDLLDQLKQALL”, the “soluble fraction (log2)” value was -0.516.

Take “HMKIDELKAYLFQSVRVKNPHTQEYDTLKIIELNYYQDKIKAKLKNSDDDYITEMIFESIKHLQNFLG”: the “soluble fraction (log2)” value was -0.298.

Regarding “HMSDILALMPGTIKQILVAPGDSVKRGQTVIIMESMKMELTIAAHRDGVVKRIPVEQGGQVEKGMRLLELE”, the “soluble fraction (log2)” value is 0.256.

On to “HMSETEWGEIYRKVMAAGLIPARSVRERLLALPSIEPLLQAAEAAGSKGMLDETLLDSLLSKT”, for which the “soluble fraction (log2)” value turned out to be 0.134.

Take “HMQVTDTGTIEGEIDKVLAANPDRVTEYHDGKEKILGWFVGQVMQTTKGKANPQMVNQLFLEKLK”: the “soluble fraction (log2)” value was found to be 0.142.

“HMGVVEEVAADFEGRAVVGKVDVDEQTELARRFGIMSIPTLVVMKGGKVVEQAVGARGKADIAAMLERH”: the “soluble fraction (log2)” value turned out to be 0.0848.

For “HMIPDPPALGSNLHRERRRQQLSLDALAAASGVSKAMLSQIEADKVNPTIATMWKIAHALNIDFETLLRGE”, the “soluble fraction (log2)” value is -0.283.

In the case of “HMESWNRARILEKIRELHAQGVALNNASMRRLGYRGMMEAAARPQNFGSWEAAVRAAGIDYDRV”, the “soluble fraction (log2)” value is -0.00832.

Regarding “HMANPRLEYFLSNITPDWNEFSPELKNQLLIENADPYKLEQYILQVSPDMYIEEQNAPGTVRQMAGDITG”, the “soluble fraction (log2)” value turned out to be 0.09.

In the case of “HMGLLEMPSERERQVLVLIAEGLSNKEIAARLYLTEGTVKNHAHSLYAKLNVTTRTLAIARARQLGI”, the “soluble fraction (log2)” value is -1.54.

Turning to “HMVAFYATPKERGIYDDAETYREGDIVSIADGSRWIYVNPTATAGNDPADGSVYWERMSGAATGP”, the “soluble fraction (log2)” value is 0.0147.

Regarding “HMGFDTVVEKVLGLITSRPMTSRDIQMTLGRSREHTSRLMNRLYKEGLVDRNTSSKPFSYIITEKGREKI”, the “soluble fraction (log2)” value is -0.0114.

On to “HMEELIEMNGVVMEILPDSRYRVTLDNGHKLIAYTGGKMKKNHIRILAGDKVTLELSPYDINNGRITFRHI”, for which the “soluble fraction (log2)” value is -1.28.

In the case of “HMAILDTALDVLSMNLKDNYTSFQILRQAAIAGKIAFNLTEKNPLGGVIEVELTGDDLETWIEAATW”, the “soluble fraction (log2)” value is -0.115.

As to “HMARRTPPPTVSELNALLRVAAPHIQRVILLGIYTGARIGPSELFSLKWDDVDLTRGVIGIRL”, the “soluble fraction (log2)” value was -0.0306.

“HMNINHEINIKSKKKISILENNPNLSQFYLTKNPDQYNYNLVFSDKSELNKLKEKLESDNEVEDIDIRYG”: the “soluble fraction (log2)” value was 0.06.

As for “HMTEKSTRSVPQEHEGKRLDVAAALLFPVYSRSELARRIDAGYLLLNGKGSTPKTKVHELDLIELLEV”, the “soluble fraction (log2)” value is -0.341.

As to “HMDEMPVEFVKISIKAGHPWENRKIKDLASLPDLLLVLILRGEERIIPNGNTVVLAGDKIVLSALSPE”, the “soluble fraction (log2)” value was -0.936.

In the case of “HMNETVTNQTVLDLLKEGFTSEEIIGAIENSSTRTITYDINFMRQLKAAGADVTLTTYLQKIAKKDM”, the “soluble fraction (log2)” value was -0.13.

For “HMNMLGEQVRNIRKSRGFTLKALAEQTGLSIGYISQIERNLTDPSLSTLRKISAALDVPTYLFMG”, the “soluble fraction (log2)” value is -1.55.

In the case of “HMSQVHYAVLFKNASAAEATEIVTYARETLGVQDIKINANGDILVPEDKVEEMRVSMSIAGFPK”, the “soluble fraction (log2)” value is 0.22.

On to “HMRTYDPQAVELNNKALELINQGRLDSALLVYDQSIKTDKTYYFPHIGKSIIYMRKKDWNKAFEETQQAIK”, for which the “soluble fraction (log2)” value was 0.18.

In the case of “HMEGNLVEIFEDAFGRTMSTMDIEYINQFKRTGYDDEMIVSALREAVKSNALSFRYIERVLENWAHS”, the “soluble fraction (log2)” value was -0.202.

With “HMELTVPDFTNMSLEDAINLAEKRDVRLEVTDSVFVKRLGRGFIYSQNPVAGSKVKKGRRILITINAIN”, the “soluble fraction (log2)” value is -2.53.

On to “HMDVKPWERQEGESAKAFEAFTIYAGLGADRSLRAVAQQLGKSKTLMDRWSSTYSWVARAAEYDADLQRK”, for which the “soluble fraction (log2)” value was -0.575.

Turning to “HMNQKKFIQADYEDRLFDHLAFEVKDMEKIISMMRREKFTITDEPFRLSPTGSLIAFVEDPDRTLIELIER”, the “soluble fraction (log2)” value is -0.32.

Regarding “HMDIVENSMPNVVGLELNRAKELMTQLGFTNVRYEPTESSRPENEVVYQSVDKDETLDVSSEIIIQYSSGV”, the “soluble fraction (log2)” value was -0.0131.

Turning to “HMREVPHGEYEVKIEKLELVESKAGDPMVTVWFKVLAGDYKGSMIFMNQVITKGFQIHIMNEFLR”, the “soluble fraction (log2)” value is -0.256.

Consider “HMKYSELLLEIILQSKEHPTAEQIFIEAKKRNPKIVQATVYNNLKNLLAQGRVIRISNPGQPDRYDNT”, for which the “soluble fraction (log2)” value is -0.401.

Take “HMPMPQDEVSYALGLSIGQNFKASGIKAITSEDFIAGLQDALAEREPQMTTERAREVINQLFMRLQQEESE”: the “soluble fraction (log2)” value turned out to be 0.145.

For “HMNTDALIGKTGYVTEIVGERHGRIQFSGGEWSARTEGVSIPVGAEVRVDRIDGATAVVSAV”, the “soluble fraction (log2)” value amounted to 0.115.

As for “HMNLDMVINKIGIVTEDIKQDKIGEVKVLGKRWSAYSNTELKKDEKVKILSIDGVKLKVEKI”, the “soluble fraction (log2)” value stood at 0.191.

With “HMDFRVGVWVELVQQRRSVRTQLTWVSPQHTLFLFTAKDGSTQSMTLRMRDKLLAEGNLRIVAPPSR”, the “soluble fraction (log2)” value was -2.23.

Take “HMNSLKNKNNLIALVGASNDKNKYGNKILLDLVSKGHNVVPINPKEDTVAGLKSYNNVSELSEKPSI”: the “soluble fraction (log2)” value was -0.211.

With “HMNMLGSNIKYLRNRHKLSQQELSEKLGVPRSSLSDYERGHTQVGLDSLIKLADIFDVKIDDLLRSNLSHR”, the “soluble fraction (log2)” value is -0.0552.

Take “HMQDTRSHARKMLAAIEALLEGRSGSDIQAYTIHNRSITKMTVPELVKWRSYYQQQVRSEDAAASLA”: the “soluble fraction (log2)” value is -0.129.

“HMEYSNLGEALRRLSEIDLQIILLKYSHGFSIKEISKILDIKEVNLYKRNKRALNKLKKILAEMEVLSN”: the “soluble fraction (log2)” value is -0.397.

Consider “HMLPKILVMDGKVNKNALTTLGKDEEWVKKVLRNHNIHSIKDVLLALYDTKGKFQYQLYDDYEK”, for which the “soluble fraction (log2)” value was -0.0783.

In the case of “HMDNEYDKVYQAALSKLEGYPRSSITTAVIKDVVAQTIKYFEIKNFGYEDTIINQLQSAFTVKSSS”, the “soluble fraction (log2)” value is -0.0856.

With “HMDPALSPAEQKIWDLLAAGETHIDDLVRASGLPVATVNSALVMMEMKEVISQVAAKTYRRNRRN”, the “soluble fraction (log2)” value was -0.0324.

Regarding “HMTRHSSVDFAGYILRNKENEPIFGFGKHKGKTVVEVLQREQGYFGWLMEADFPLYTKKVLTAIRLNTLNS”, the “soluble fraction (log2)” value was -0.117.

Regarding “HMPSQLPLAFARRHGVLLRGFSNGLAQLTVRPEVSTLSLAETRRHLGVPLALEKVTTERFDQLLREAYEA”, the “soluble fraction (log2)” value is -0.37.

Regarding “HMAFKNGLLQTSKKVTLVRKVDGVTMRFDSLRAASVFLGRNKGYLSNVIKNGRTLDNYEIVVGE”, the “soluble fraction (log2)” value was -0.991.

As to “HMADPLQLLEQQRQDYIQAVTEYLNSHPNAKPIWDVMKKDAGYGDMKLTDIPLGILKKLYITLT”, the “soluble fraction (log2)” value was -0.356.

For “HMGPKALLKIPGLQEVDAELLFKEGYKSISAVASADPEMLKAIPGVDEQKVTEWVTGAEQILSQQVNKGA”, the “soluble fraction (log2)” value was determined as 0.342.

With “HMLMTGSLQTKHGKYYVVVRIPDGLGNTKAKWINTGIPTDGNNKRKAQQRRIEILTELEENKD”, the “soluble fraction (log2)” value was -1.84.

As to “HMPQQVFKREDLQKWGLTGQADSRKRREKLGQLLGIGYGNGKQLIHRLNMFQVDRATFEQAIKQINQEEDH”, the “soluble fraction (log2)” value is -0.423.

Turning to “HMKGTVKFFNESKGFGFITEEGTNKEHFVHVSGLVDEIRENDEVEFDLQDGRKGLNAVNVRV”, the “soluble fraction (log2)” value is 0.231.
